In patent US20260274896A1 (ICHIMARU PHARCOS, published 2026):
Blank lines part the entries; values can stand above or below the binder they belong to. *1 amine or outer side, *2 acyl side, *3 side chain or, on linkers, in order; H or OH if unused. Bridges are numbered along the chain shown (N, C = ends). [ ]: non-standard residue; d: D form. TBMB = c1c(C[*:1])cc(C[*:3])cc1C[*:2]; NMeY = CN[C@@H](Cc1ccc(O)cc1)C(=O)O; pXylylene = c1cc(C[*:2])ccc1C[*:1]; Dap = NC[C@H](N)C(=O)O; Mpa = O=C(O)CCS; Sar = CNCC(=O)O

Experiments:
[1] = biological target: T1, Vasoactive intestinal peptide receptor 2 (VIPR2), human, on the human VIPR2-expressing cell line (Catalog No. … (human, UniProt P41587 24-438)); assay: summary of the Examples (binding to VIPR2-expressing cells)
T1 construct: whole, on cells; also called VPAC2; VIPR2-expressing cells
T1 sequence (looked up): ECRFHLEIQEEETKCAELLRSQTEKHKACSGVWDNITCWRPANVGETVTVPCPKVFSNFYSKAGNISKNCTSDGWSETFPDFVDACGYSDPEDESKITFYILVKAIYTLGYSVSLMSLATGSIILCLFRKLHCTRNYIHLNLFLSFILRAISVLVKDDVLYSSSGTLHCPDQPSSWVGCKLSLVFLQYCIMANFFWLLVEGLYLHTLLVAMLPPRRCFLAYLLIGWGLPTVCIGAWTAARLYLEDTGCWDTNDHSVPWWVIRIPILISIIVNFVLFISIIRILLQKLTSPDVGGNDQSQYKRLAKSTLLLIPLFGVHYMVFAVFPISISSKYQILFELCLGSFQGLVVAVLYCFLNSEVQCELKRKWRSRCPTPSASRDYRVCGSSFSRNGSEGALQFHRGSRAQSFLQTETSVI

[2] = biological target: T1, Vasoactive intestinal peptide receptor …; assay: competitive cell-based ELISA on human VIPR2-expressing cells; competitor Biotin-VIpep-3 (1000 nM)
Procedure: (§1) To confirm the binding activity of the amino acid substituted peptides to VIPR2, a competitive binding assay was constructed using the cell-based ELISA method shown in FIG. 3. The following is a brief description of this cell-based ELISA method. Human VIPR2-expressing cell line (Catalog No. HTS079RTA, manufactured by EUROFINS) was spread in a 96-well plate using the culture medium provided by the manufacturer, and cultured overnight at 37° C. in a CO₂ incubator. After washing the plates with HBSS containing 0.1% BSA, the mixtures containing Biotin-VIpep-3 (1000 nM) and any concentration of amino acid substituted peptide or VIpep-3 were prepared and added at 50 μL/well. After reaction on ice for 60 minutes, the plate was washed with 0.1% BSA containing HBSS. Biotin-VIpep-3 bound to VIPR2-expressing cells adhering to the plate was detected with SA-HRP (catalog no. ab7403, Abcam). For HRP quantification, SuperSignal ELISA Pico Chemiluminescent Substrate (Catalog No. 37070, ThermoFisher) was used to measure chemiluminescence values. […] In other words, the binding activity of amino acid substituted peptides and VIpep-3 to VIPR2 is detected as a competitive inhibitory activity against Biotin-VIpep-3 binding. […] Then, using the 50% inhibitory activity value of VIpep-3 as 1, the relative inhibitory activity values of the amino acid-substituted peptides were calculated.

[3] = biological target: T1, Vasoactive intestinal peptide receptor …; assay: competitive cell-based ELISA on human VIPR2-expressing cells; competitor Biotin-VIpep-3 (1000 nM), N=4
Procedure: as §1

binding result [1]: binds
B1: Seq-7 (peptide)
peptide: [Mpa][NMeY]LPKYLCDLI-NH2
modifications: linker 1-8 via pXylylene; lactam 5-9
SMILES: CC[C@H](C)[C@H](NC(=O)[C@H](CC(C)C)NC(=O)[C@@H]1CC(=O)NCCCC[C@@H]2NC(=O)[C@@H]3CCCN3C(=O)[C@H](CC(C)C)NC(=O)[C@H](Cc3ccc(O)cc3)N(C)C(=O)CCSCc3ccc(cc3)CSC[C@H](NC(=O)[C@H](CC(C)C)NC(=O)[C@H](Cc3ccc(O)cc3)NC2=O)C(=O)N1)C(N)=O
notes: Synthetic bicyclic peptide

binding result [1]: binds
B2: Seq-6 (peptide)
peptide: XYLPKYLCDLI
modifications: Mpa at position 1; NmeTyr at position 2; thioether bridge via DBmXy (1,3-bis(bromomethyl)benzene) linker (1-8); side-chain amide(5-9) between Lys5 and Asp9; C-terminal amide (NH2)
notes: Synthetic bicyclic peptide

binding result [2]: binds
B3: VIpep-3 (peptide)
peptide: Ac-CPPYLPRRLCTLLLRS-OH
modifications: disulfide 1-10
SMILES: CC(=O)N[C@H]1CSSC[C@@H](C(=O)N[C@H](C(=O)N[C@@H](CC(C)C)C(=O)N[C@@H](CC(C)C)C(=O)N[C@@H](CC(C)C)C(=O)N[C@@H](CCCNC(=N)N)C(=O)N[C@@H](CO)C(=O)O)[C@@H](C)O)NC(=O)[C@H](CC(C)C)NC(=O)[C@H](CCCNC(=N)N)NC(=O)[C@H](CCCNC(=N)N)NC(=O)[C@@H]2CCCN2C(=O)[C@H](CC(C)C)NC(=O)[C@H](Cc2ccc(O)cc2)NC(=O)[C@@H]2CCCN2C(=O)[C@@H]2CCCN2C1=O
notes: also called Vlpep-3

binding result [1]: binds
B4: Seq-5 (peptide)
peptide: XYLPKYLCDLI
modifications: Mpa at position 1; NmeTyr at position 2; thioether bridge via DBoXy (1,2-bis(bromomethyl)benzene) linker (1-8); side-chain amide(5-9) between Lys5 and Asp9; C-terminal amide (NH2)
notes: Synthetic bicyclic peptide

binding result [1]: binds
B5: Seq-4 (peptide)
peptide: XYLPKYLCDLI
modifications: Mpa at position 1; NmeTyr at position 2; thioether bridge via DIHex (1,6-diiodohexane) linker (1-8); side-chain amide(5-9) between Lys5 and Asp9; C-terminal amide (NH2)
notes: Synthetic bicyclic peptide

binding result [1]: binds
B6: Seq-3 (peptide)
peptide: XYLPKYLCDLI
modifications: Mpa at position 1; NmeTyr at position 2; thioether bridge via DIPen (1,5-diiodopentane) linker (1-8); side-chain amide(5-9) between Lys5 and Asp9; C-terminal amide (NH2)
notes: Synthetic bicyclic peptide

binding result [1]: binds
B7: Seq-2 (peptide)
peptide: XYLPKYLCDLI
modifications: Mpa at position 1; NmeTyr (N-methyl-Tyr) at position 2; thioether bridge via DIBut (1,4-diiodobutane) linker (1-8); side-chain amide(5-9) between Lys5 and Asp9; C-terminal amide (NH2)
notes: Synthetic bicyclic peptide

binding result [3]: binds
B8: Seq-9 (peptide)
peptide: [Mpa][NMeY]L[Sar]CYLC[Dap]LI-NH2
modifications: linker 1-5-8 via TBMB
SMILES: CC[C@H](C)[C@H](NC(=O)[C@H](CC(C)C)NC(=O)[C@H](CN)NC(=O)[C@@H]1CSCc2cc3cc(c2)CSC[C@H](NC(=O)CN(C)C(=O)[C@H](CC(C)C)NC(=O)[C@H](Cc2ccc(O)cc2)N(C)C(=O)CCSC3)C(=O)N[C@@H](Cc2ccc(O)cc2)C(=O)N[C@@H](CC(C)C)C(=O)N1)C(N)=O
notes: Synthetic bicyclic peptide

binding result [1]: binds
B9: Seq-10 (peptide)
peptide: Ac-CPPYLPKYLCDLI-NH2
modifications: disulfide 1-10; lactam 7-11
SMILES: CC[C@H](C)[C@H](NC(=O)[C@H](CC(C)C)NC(=O)[C@@H]1CC(=O)NCCCC[C@@H]2NC(=O)[C@@H]3CCCN3C(=O)[C@H](CC(C)C)NC(=O)[C@H](Cc3ccc(O)cc3)NC(=O)[C@@H]3CCCN3C(=O)[C@@H]3CCCN3C(=O)[C@@H](NC(C)=O)CSSC[C@H](NC(=O)[C@H](CC(C)C)NC(=O)[C@H](Cc3ccc(O)cc3)NC2=O)C(=O)N1)C(N)=O
notes: Synthetic bicyclic peptide

binding result [1]: binds
B10: Seq-1 (peptide)
peptide: [Mpa]PPYLPKYLCDLI-NH2
modifications: disulfide 1-10; lactam 7-11
SMILES: CC[C@H](C)[C@H](NC(=O)[C@H](CC(C)C)NC(=O)[C@@H]1CC(=O)NCCCC[C@@H]2NC(=O)[C@@H]3CCCN3C(=O)[C@H](CC(C)C)NC(=O)[C@H](Cc3ccc(O)cc3)NC(=O)[C@@H]3CCCN3C(=O)[C@@H]3CCCN3C(=O)CCSSC[C@H](NC(=O)[C@H](CC(C)C)NC(=O)[C@H](Cc3ccc(O)cc3)NC2=O)C(=O)N1)C(N)=O
notes: Synthetic bicyclic peptide derived from VIpep-3

binding result [3]: binds
B11: Seq-8 (peptide)
peptide: [Mpa][NMeY]L[Sar]CYLCSLI-NH2
modifications: linker 1-5-8 via TBMB
SMILES: CC[C@H](C)[C@H](NC(=O)[C@H](CC(C)C)NC(=O)[C@H](CO)NC(=O)[C@@H]1CSCc2cc3cc(c2)CSC[C@H](NC(=O)CN(C)C(=O)[C@H](CC(C)C)NC(=O)[C@H](Cc2ccc(O)cc2)N(C)C(=O)CCSC3)C(=O)N[C@@H](Cc2ccc(O)cc2)C(=O)N[C@@H](CC(C)C)C(=O)N1)C(N)=O
notes: Synthetic bicyclic peptide
